In patent US20140212432A1 (University of California, published 2014) one finds binding result and Ki data, which are given here for two molecules.

Test [1] concerns the target T1, uPA-PAI-1 complex (human, UniProt P00749 21-177; P00749 179-431; P05121 24-402). Kind of test: binding of U33 Fab to uPA pre-incubated with PAI-1.
Test [2] has as its target T2, active human urokinase-type plasminogen activator (uPA) (human, UniProt P00749 21-177; P00749 179-431). Kind of test: steady-state enzyme inhibition of soluble uPA.
For test [3], the target named is T3, mouse uPA (mouse, UniProt P06869 21-433, limits assumed).
T3 construct: The construct is not described; It was active-site titrated in the IgG ELISA, so it was an active form; also called mouse enzyme
T3 sequence (P06869 21-433 limits assumed): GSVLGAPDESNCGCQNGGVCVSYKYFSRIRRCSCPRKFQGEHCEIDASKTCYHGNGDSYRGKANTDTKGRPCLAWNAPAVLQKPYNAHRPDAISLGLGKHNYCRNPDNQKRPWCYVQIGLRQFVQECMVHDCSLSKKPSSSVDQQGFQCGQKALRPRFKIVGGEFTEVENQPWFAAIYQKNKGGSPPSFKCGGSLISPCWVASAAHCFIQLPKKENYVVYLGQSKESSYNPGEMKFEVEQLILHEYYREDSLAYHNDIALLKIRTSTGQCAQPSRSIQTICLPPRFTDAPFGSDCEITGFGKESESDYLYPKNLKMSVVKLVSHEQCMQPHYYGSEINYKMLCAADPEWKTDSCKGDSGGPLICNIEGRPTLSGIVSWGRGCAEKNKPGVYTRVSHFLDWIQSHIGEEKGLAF
Kind of test: quantitative ELISA, uPA-coated plates. How it is done: (§1) Serial dilutions of pure U33 were added to uPA coated plates and incubated for 1 hour. The amount of Fab bound to uPA was determined by ELISA. U33 Fab was detected only in wells coated with human active uPA. Panel B depicts inhibition of human uPA by U33. The proteolytic activity of human or mouse uPA was read in absence and presence of 1 μM of U33. The enzyme activity is expressed as percentage of the uPA activity in absence of Fab (100%). […] Serial dilutions of U33-Fab were added to uPAR-uPA coated plates and incubated for 1 hour and the activity of uPA was read. Panel D depicts prevention of uPA binding to PAI-1 coated plates by U33. Serial dilutions of pure U33 (4 μM to 31.2 nM) were pre-incubated overnight with uPA and added to PAI-1 coated plates. The amount of uPA bound to PAI was determined by ELISA. […] Serial dilutions of U33 were added to a uPA-coated plate pre-incubated with and without 1 μM CMK. The amount of U33 Fab bound to uPA was determined by ELISA.
(§2) The affinity and specificity of the U33 Fab was determined using quantitative ELISA as well as inhibition assays with human uPA (active and zymogen) and mouse uPA.

For test [4], the target named is T4, human pro-uPA (zymogen uPA) (human, UniProt P00749 21-431).
T4 construct: mature
Kind of test: quantitative ELISA, uPA-coated plates. The method, then: as §1, §2

Test [5] addresses T3, mouse uPA. Kind of test: ELISA, protease-coated plate, anti-human Fc-HRP detection. The method, then:
(§3) ELISA assays were performed to further assess the selectivity of U33 IgG for uPA compared to highly related serine proteases. All proteases were active site-titrated to ensure that identical concentrations of active protease were adsorbed to the ELISA plate. After blocking, increasing concentrations of U33 IgG were incubated for 1 hour at RT. Unbound U33 IgG was removed by washing and bound U33 IgG was detected with an anti-human Fc-HRP secondary. 50 μL at of 2.8 nM active protease in coating buffer were added to each well in a Nunc Maxisorb ELISA plate and incubated 0/N at 4° C. Unbound protease was removed by hand washing wells 3× with wash buffer. Wells were incubated in 200 μL of Block Solution per well for 2 h at RT. Block Solution was removed by hand washing wells 3× with wash buffer. 50 μL of U33 IgG in Block Solution was added for 1 h at RT. The highest U33 IgG concentration was 651 nM, and was decreased in two-fold increments to 5.1 nM. Unbound U33 IgG was removed by hand washing wells 6× with wash buffer. 50 μL of 1:2000 dilution of secondary antibody in Block Solution was added for 1 h at RT. Unbound secondary antibody was removed by hand washing wells 6× with wash buffer. 100 μL of 1-step Ultra TMB-ELISA was added and then quenched with 100 μL of 1 M HCl. Signal was quantified by measuring A₄₅₀ on plate reader. Results for U33 binding to uPA, thrombin, HGFA, hepsin, chymotrypsin and trypsin are shown in FIG. 4, panel A. Results for U33 binding to uPA, MT-SP1 and plasmin are shown in FIG. 4, panel B. Results for U33 binding to uPA and tPA are shown in FIG. 4, panel C. […] Therefore U33 IgG can discriminate between proteases with identical catalytic mechanisms and similar protein folds.
On the technique in general: An ELISA detects its analyte on a solid surface through an enzyme-linked reagent.

The target in test [6] is tPA (UniProt P00750 36-562). The description is as above. How it is done: as §3
tPA, sequence (P00750 36-562 limits assumed): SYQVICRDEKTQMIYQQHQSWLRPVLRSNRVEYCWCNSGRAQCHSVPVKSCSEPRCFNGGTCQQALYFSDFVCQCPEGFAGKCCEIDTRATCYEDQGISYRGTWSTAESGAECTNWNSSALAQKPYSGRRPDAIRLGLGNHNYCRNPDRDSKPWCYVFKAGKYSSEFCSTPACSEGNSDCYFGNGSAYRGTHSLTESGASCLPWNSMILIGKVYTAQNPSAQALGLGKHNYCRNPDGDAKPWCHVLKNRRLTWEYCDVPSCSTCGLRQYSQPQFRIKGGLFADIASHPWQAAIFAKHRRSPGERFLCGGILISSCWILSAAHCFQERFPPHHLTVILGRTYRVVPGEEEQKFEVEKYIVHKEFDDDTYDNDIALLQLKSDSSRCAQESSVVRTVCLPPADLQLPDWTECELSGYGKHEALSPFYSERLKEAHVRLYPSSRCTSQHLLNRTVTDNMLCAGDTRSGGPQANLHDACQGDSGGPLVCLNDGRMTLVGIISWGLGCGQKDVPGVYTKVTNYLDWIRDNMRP
The target in test [7] is T5, HGFA (UniProt Q04756 373-655, limits assumed).
T5 sequence (looked up): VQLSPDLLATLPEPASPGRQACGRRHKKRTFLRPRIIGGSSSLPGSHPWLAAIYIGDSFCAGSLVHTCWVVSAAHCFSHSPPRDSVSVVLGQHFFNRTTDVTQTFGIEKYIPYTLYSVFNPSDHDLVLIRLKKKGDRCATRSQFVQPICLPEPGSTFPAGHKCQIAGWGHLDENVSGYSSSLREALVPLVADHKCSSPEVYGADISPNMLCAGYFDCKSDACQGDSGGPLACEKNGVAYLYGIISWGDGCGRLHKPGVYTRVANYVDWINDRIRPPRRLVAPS
The description is as above. How it is done: as §3

For test [8], the target named is hepsin (UniProt P05981 45-417, limits assumed). The test is described as above. How it is done:
as §3

Test [9] concerns the target T6, MT-SP1 (UniProt Q9Y5Y6 615-855, limits assumed).
T6 sequence (looked up): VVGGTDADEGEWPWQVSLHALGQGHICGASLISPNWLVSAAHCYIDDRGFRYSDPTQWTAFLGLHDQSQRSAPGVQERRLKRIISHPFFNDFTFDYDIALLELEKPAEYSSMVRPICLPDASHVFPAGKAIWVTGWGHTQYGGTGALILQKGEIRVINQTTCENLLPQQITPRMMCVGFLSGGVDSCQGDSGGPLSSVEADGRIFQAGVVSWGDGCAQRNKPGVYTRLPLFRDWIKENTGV
Described as above. How it is done:
as §3

Test [10] deals with thrombin (UniProt P00734 328-622). The test is described as above. The method, then:
as §3

Test [11] addresses plasmin (UniProt P00747 97-810, limits assumed). The description is as above. How it is done:
as §3

Test [12] deals with T2, active human urokinase-type plasminogen …. Kind of test: enzyme inhibition of uPA.
Test [13] addresses T4, human pro-uPA (zymogen uPA). Kind of test: ELISA, plate coated with pro-uPA. The method, then: (§4) ELISA assays were performed to further assess the selectivity of U33 IgG for uPA compared to highly related serine proteases. All proteases were active site-titrated to ensure that identical concentrations of active protease were adsorbed to the ELISA plate. After blocking, increasing concentrations of U33 IgG were incubated for 1 hour at RT. Unbound U33 IgG was removed by washing and bound U33 IgG was detected with an anti-human Fc-HRP secondary. 50 μL at of 2.8 nM active protease in coating buffer were added to each well in a Nunc Maxisorb ELISA plate and incubated 0/N at 4° C. Unbound protease was removed by hand washing wells 3× with wash buffer. Wells were incubated in 200 μL of Block Solution per well for 2 h at RT. Block Solution was removed by hand washing wells 3× with wash buffer. 50 μL of U33 IgG in Block Solution was added for 1 h at RT. The highest U33 IgG concentration was 651 nM, and was decreased in two-fold increments to 5.1 nM. Unbound U33 IgG was removed by hand washing wells 6× with wash buffer. 50 μL of 1:2000 dilution of secondary antibody in Block Solution was added for 1 h at RT. Unbound secondary antibody was removed by hand washing wells 6× with wash buffer. 100 μL of 1-step Ultra TMB-ELISA was added and then quenched with 100 μL of 1 M HCl. Signal was quantified by measuring A₄₅₀ on plate reader. […]

The target of test [14] is T1, uPA-PAI-1 complex. Kind of test: ELISA, uPA-coated plate pre-treated with PAI-1 (133 nM to 8.3 nM). The method, then:
as §4

hepsin, sequence (P05981 45-417 limits assumed): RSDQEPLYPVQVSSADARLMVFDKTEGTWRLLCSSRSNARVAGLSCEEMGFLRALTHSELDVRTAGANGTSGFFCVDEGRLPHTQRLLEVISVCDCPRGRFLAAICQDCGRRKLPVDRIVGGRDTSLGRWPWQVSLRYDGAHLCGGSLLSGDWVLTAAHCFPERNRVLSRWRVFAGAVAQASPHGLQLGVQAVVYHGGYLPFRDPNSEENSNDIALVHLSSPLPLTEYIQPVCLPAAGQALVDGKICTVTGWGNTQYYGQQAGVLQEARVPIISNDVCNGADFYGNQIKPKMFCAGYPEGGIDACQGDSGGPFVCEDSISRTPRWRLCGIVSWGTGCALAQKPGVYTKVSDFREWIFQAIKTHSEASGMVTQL
plasmin, sequence (P00747 97-810 limits assumed): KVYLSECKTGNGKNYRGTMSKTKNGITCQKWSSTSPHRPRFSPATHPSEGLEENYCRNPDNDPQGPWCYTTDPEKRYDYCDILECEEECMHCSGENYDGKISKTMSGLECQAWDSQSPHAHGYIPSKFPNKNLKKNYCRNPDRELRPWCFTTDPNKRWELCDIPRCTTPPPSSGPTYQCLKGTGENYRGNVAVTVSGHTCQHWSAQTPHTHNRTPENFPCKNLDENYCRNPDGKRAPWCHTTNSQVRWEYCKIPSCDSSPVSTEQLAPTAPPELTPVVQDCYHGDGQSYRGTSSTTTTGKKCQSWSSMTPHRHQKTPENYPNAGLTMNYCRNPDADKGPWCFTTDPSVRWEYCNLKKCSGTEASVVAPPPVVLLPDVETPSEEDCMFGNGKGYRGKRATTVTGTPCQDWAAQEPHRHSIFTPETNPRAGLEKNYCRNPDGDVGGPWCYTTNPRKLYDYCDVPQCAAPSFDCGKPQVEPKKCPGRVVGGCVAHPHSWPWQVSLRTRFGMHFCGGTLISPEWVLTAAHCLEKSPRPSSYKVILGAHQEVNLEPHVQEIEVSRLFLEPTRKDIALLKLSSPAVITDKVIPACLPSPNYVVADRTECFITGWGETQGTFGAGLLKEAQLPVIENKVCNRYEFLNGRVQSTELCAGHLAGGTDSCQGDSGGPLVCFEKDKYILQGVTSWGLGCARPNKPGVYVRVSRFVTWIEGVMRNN

B1: U33 Fab (Fab, V domains shown)
VH: EVQLVQSGGGLVKPGRSLRLSCTASGFTFGDYAMSWVRQAPGKGLEWVGFIRSKAYGGTTEYAAVKGRFTISRDDSKSIAYLQMNSLKTEDTAVYYCIRGANWNWGQGTLVTVSS
VL: EIVLTQSPLSLPVTPGEPASISCRSSQTLMNRNGNNFLDWYLQKPGQSPQLLIYLGSNRAPGVPDRFSGSGSGTDFTLKISRVEAEDVGVYYCMQRIEFPYTFGQGTKLEIKR
notes: Human Fab from a naive B cell phage display library; also called clone U33; Fab U33
For the molecule B1, the binding result in [1], in [3] and in test [4] was “no binding” throughout. For the same molecule, in test [2], the inhibition constant (Ki) was 20 nM.

B2: U33 IgG (antibody, V domains shown)
VH: EVQLVQSGGGLVKPGRSLRLSCTASGFTFGDYAMSWVRQAPGKGLEWVGFIRSKAYGGTTEYAAVKGRFTISRDDSKSIAYLQMNSLKTEDTAVYYCIRGANWNWGQGTLVTVSS
VL: EIVLTQSPLSLPVTPGEPASISCRSSQTLMNRNGNNFLDWYLQKPGQSPQLLIYLGSNRAPGVPDRFSGSGSGTDFTLKISRVEAEDVGVYYCMQRIEFPYTFGQGTKLEIKR
notes: U33 Fab converted to full length IgG; It was detected with an anti-human Fc secondary; The internalisation study used the 111In-DOTA labelled form; also called full length IgG; 111In-U33 IgG
Regarding B2, the binding result in test [5], in test [6], in test [7], in [8], in test [9] and in test [10] was “no binding (tested: highest U33 IgG concentration 651 nM)” each time. The binding result in test [11], in test [13] and in test [14] was “no binding (tested: highest U33 IgG concentration 651 nM)” throughout. In addition, in [12], the affinity, expressed as Ki, was 10 nM.

For orientation: Ki means the dissociation constant of the complex between target and ligand, obtained from inhibition or displacement.
